Laboratory results: paper PMC5343656, “The human mitochondrial transcription factor A is a versatile G-quadruplex binding protein”

Key:
[1] = target: T1, TFAM (mature) (human, UniProt Q00059 43-246); test: EMSA; EMSA: 25 mM Tris-HCl pH 7.0, 90 mM NaCl, 1 mM DTT, 3% glycerol, 0.01% Tween20, 30 min, room temperature; G4s mostly prefolded in 10 mM cacodylate pH 6.5, 100 mM KCl; conditions: protein: recombinant, tags: C-terminal 6xHis
T1 sequence: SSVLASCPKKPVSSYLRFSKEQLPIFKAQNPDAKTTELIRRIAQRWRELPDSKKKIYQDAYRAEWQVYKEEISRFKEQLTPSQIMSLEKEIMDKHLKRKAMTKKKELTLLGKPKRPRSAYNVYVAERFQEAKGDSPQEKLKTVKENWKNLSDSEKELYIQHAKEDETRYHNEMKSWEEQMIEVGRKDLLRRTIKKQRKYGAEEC

[2] = target: T1, TFAM (mature); test: competition; vs 32P CSBII G4-DNA/RNA; EMSA: 25 mM Tris-HCl pH 7.0, 90 mM NaCl, 1 mM DTT, 3% glycerol, 0.01% Tween20, 30 min, room temperature; G4s mostly prefolded in 10 mM cacodylate pH 6.5, 100 mM KCl; conditions: protein: recombinant; tags: C-terminal 6xHis; duplex
[3] = target: T1, TFAM (mature); test: EMSA; similar to unmodified c-myc; EMSA: 25 mM Tris-HCl pH 7.0, 90 mM NaCl, 1 mM DTT, 3% glycerol, 0.01% Tween20, 30 min, room temperature; G4s mostly prefolded in 10 mM cacodylate pH 6.5, 100 mM KCl; conditions: protein: recombinant; tags: C-terminal 6xHis; intramolecular G4
[4] = target: T2, TFAM (mature);TFAM HMG1 (human;human, UniProt Q00059;Q00059 43-246;43-125, |); test: EMSA; one TFAM and one HMG1 per G4; EMSA: 25 mM Tris-HCl pH 7.0, 90 mM NaCl, 1 mM DTT, 3% glycerol, 0.01% Tween20, 30 min, room temperature; G4s mostly prefolded in 10 mM cacodylate pH 6.5, 100 mM KCl; conditions: protein: recombinant;recombinant; tags: C-terminal 6xHis;; label: 5' 32P or SybrGold; G4 parallel tetramer of 4 strands
T2 sequence 1: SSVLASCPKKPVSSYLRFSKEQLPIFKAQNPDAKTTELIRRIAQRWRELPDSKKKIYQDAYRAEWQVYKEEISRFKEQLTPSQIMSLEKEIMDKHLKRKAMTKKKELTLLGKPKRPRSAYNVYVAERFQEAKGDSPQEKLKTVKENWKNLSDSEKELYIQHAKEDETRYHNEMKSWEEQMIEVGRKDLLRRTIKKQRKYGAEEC
T2 sequence 2: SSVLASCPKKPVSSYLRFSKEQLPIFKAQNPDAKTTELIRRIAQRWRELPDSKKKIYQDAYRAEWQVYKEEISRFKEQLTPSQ

[5] = target: T1, TFAM (mature); test: intrinsic fluorescence quenching; EMSA: 25 mM Tris-HCl pH 7.0, 90 mM NaCl, 1 mM DTT, 3% glycerol, 0.01% Tween20, 30 min, room temperature; G4s mostly prefolded in 10 mM cacodylate pH 6.5, 100 mM KCl; conditions: protein: recombinant, tags: C-terminal 6xHis
[6] = target: T1, TFAM (mature); test: competition; vs 32P-dsLSP22; EMSA: 25 mM Tris-HCl pH 7.0, 90 mM NaCl, 1 mM DTT, 3% glycerol, 0.01% Tween20, 30 min, room temperature; G4s mostly prefolded in 10 mM cacodylate pH 6.5, 100 mM KCl; conditions: protein: recombinant; tags: C-terminal 6xHis; label: 5' 32P or SybrGold; G4 parallel tetramer of 4 strands
[7] = target: T3, TFAM (mature);TFAM HMG1-L (human;human, UniProt Q00059;Q00059 43-246;43-152, |); test: EMSA; one TFAM and one or two HMG1-L per G4; EMSA: 25 mM Tris-HCl pH 7.0, 90 mM NaCl, 1 mM DTT, 3% glycerol, 0.01% Tween20, 30 min, room temperature; G4s mostly prefolded in 10 mM cacodylate pH 6.5, 100 mM KCl; conditions: protein: recombinant;recombinant; tags: C-terminal 6xHis;N-terminal His; label: 5' 32P or SybrGold; G4 parallel tetramer of 4 strands
T3 sequence 1: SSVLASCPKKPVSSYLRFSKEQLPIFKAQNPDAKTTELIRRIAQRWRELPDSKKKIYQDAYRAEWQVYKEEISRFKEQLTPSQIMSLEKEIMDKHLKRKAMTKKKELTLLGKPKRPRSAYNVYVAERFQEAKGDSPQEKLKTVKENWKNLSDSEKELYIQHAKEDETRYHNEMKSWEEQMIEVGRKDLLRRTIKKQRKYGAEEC
T3 sequence 2: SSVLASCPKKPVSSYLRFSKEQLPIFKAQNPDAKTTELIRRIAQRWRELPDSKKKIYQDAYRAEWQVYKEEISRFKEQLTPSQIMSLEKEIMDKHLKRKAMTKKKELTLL

[8] = target: T1, TFAM (mature); test: EMSA; microscopic k1, two-site fit; EMSA: 25 mM Tris-HCl pH 7.0, 90 mM NaCl, 1 mM DTT, 3% glycerol, 0.01% Tween20, 30 min, room temperature; G4s mostly prefolded in 10 mM cacodylate pH 6.5, 100 mM KCl; conditions: protein: recombinant; tags: C-terminal 6xHis; label: 5' 32P or SybrGold; G4 parallel tetramer of 4 strands
[9] = target: T1, TFAM (mature); test: EMSA; microscopic k2, two-site fit; k12 0.58; EMSA: 25 mM Tris-HCl pH 7.0, 90 mM NaCl, 1 mM DTT, 3% glycerol, 0.01% Tween20, 30 min, room temperature; G4s mostly prefolded in 10 mM cacodylate pH 6.5, 100 mM KCl; conditions: protein: recombinant; tags: C-terminal 6xHis; label: 5' 32P or SybrGold; G4 parallel tetramer of 4 strands
[10] = target: T1, TFAM (mature); test: competition; homo-competition, 32P-G4-LSP22H; EMSA: 25 mM Tris-HCl pH 7.0, 90 mM NaCl, 1 mM DTT, 3% glycerol, 0.01% Tween20, 30 min, room temperature; G4s mostly prefolded in 10 mM cacodylate pH 6.5, 100 mM KCl; conditions: protein: recombinant; tags: C-terminal 6xHis; label: 5' 32P or SybrGold; G4 parallel tetramer of 4 strands
[11] = target: T1, TFAM (mature); test: EMSA; single shift; EMSA: 25 mM Tris-HCl pH 7.0, 90 mM NaCl, 1 mM DTT, 3% glycerol, 0.01% Tween20, 30 min, room temperature; G4s mostly prefolded in 10 mM cacodylate pH 6.5, 100 mM KCl; conditions: protein: recombinant; tags: C-terminal 6xHis; G4 tetramer of 4 strands
[12] = label: 5' 32P or SybrGold, G4 parallel tetramer of 4 strands
[13] = label: 5' 32P, G4 tetramer of 4 strands

B1: CSBII G4-RNA (structured_RNA)
RNA: GAAGCGGGGGAGGGGGGGUUUGGUGGAAAU
Question: B1 was tested. Which Kd ([1]; label: 5' 32P, G4 bimolecular) did it give?
Answer: 1.25 nM

B2: CSBII G4-DNA/RNA (mixed)
DNA: GAAGCGGGGGAGGGGGGGTTTGGTGGAAAT
RNA: GAAGCGGGGGAGGGGGGGUUUGGUGGAAAU
Question: With B2 as the binder, how does the Kd ([1]; label: 5' 32P, hybrid G4 bimolecular) read?
Answer: 1.85 nM

B3: (TG6T)4 (structured_DNA)
DNA: TGGGGGGT
Question: Does B3 bind ([1]; G4 tetramer of 4 strands)?
Answer: no binding

B4: CSBII DNA/RNA heteroduplex competitor (DNA:RNA)
RNA: GAAGCGGGGGAGGGGGGGUUUGGUGGAAAU
DNA: ATTTCCACCAAACCCCCCCTCCCCCGCTTC
Question: B4 was tested. Which binding signal [2] did it give?
Answer: ~80 % free probe at 500-fold excess

B5: c-myc G4 extended (structured_DNA)
DNA: TCTGAGGGTGGGTAGGGTGGGTAACT
Question: Does B5 bind [3]?
Answer: binds

B6: G4-LSP22H (structured_DNA)
DNA: GTTAGTTGGGGGGTGACTGTTA
Question: Which results are given for B6?
Answer: Kd [1, 12]: 0.65 nM; binding result [4]: binds; binding signal [5, 12]: ~70 % Trp quenching; binding signal [6]: 1.6 fold excess for 50% displacement; binding result [7]: binds; Ka [8]: 0.61 ± 0.12 10^9 M^-1; Ka [9]: 0.69 ± 0.25 10^9 M^-1; binding signal [10]: 10 fold excess for 50% free probe

B7: (TG6TGACT)4 (structured_DNA)
DNA: TGGGGGGTGACT
Question: Which Kd [11] does the source give for B7 here?
Answer: 5 nM

B8: (TAGTTG6T)4 (structured_DNA)
DNA: TAGTTGGGGGGT
Question: Does B8 bind [11]?
Answer: binds

B9: G4-LSPas (structured_DNA)
DNA: AATAATGTGTTAGTTGGGGGGTG
Question: Which Kd [1, 13] does the source give for B9 here?
Answer: 0.89 nM

Question: What about the binding signal [5, 13] of the same binder?
Answer: ~70 % Trp quenching

B10: c-myc G4 (structured_DNA)
DNA: TGAGGGTGGGTAGGGTGGGTAA
Question: B10 was tested. Which Kd ([1]; label: 5' 32P, intramolecular G4, parallel by CD) did it give?
Answer: 53 nM

B11: dsLSP22 (dsDNA)
DNA 1: GTTAGTTGGGGGGTGACTGTTA
DNA 2: TAACAGTCACCCCCCAACTAAC
Question: For B11, which Kd ([1]; label: 5' 32P (EMSA), blunt) is on record?
Answer: 9.2 nM

Question: And the binding signal ([5]; label: 5' 32P (EMSA), blunt)?
Answer: ~50 % Trp quenching

B12: CSBII G4-DNA (EMSA) (structured_DNA)
DNA: GAAGCGGGGGAGGGGGGGTTTGGTGGAAAT
Question: B12 was tested. Which Kd ([1]; label: 5' 32P, G4, purified bimolecular) did it give?
Answer: 3.65 nM

B13: ILPR G4 extended (structured_DNA)
DNA: TCACAGGGGTGTGGGGACAGGGGTGTGGGGTGACT
Question: With B13 as the binder, how does the Kd ([1]; intramolecular G4) read?
Answer: ~26 nM

B14: ILPR G4 (structured_DNA)
DNA: ACAGGGGTGTGGGGACAGGGGTGTGGGG
Question: Which Kd ([1]; label: 5' 32P, intramolecular G4, mostly antiparallel by CD) does the source give for B14 here?
Answer: 118 nM
